According to the DeepSol protein solubility set:

experiment: soluble on expression in E. coli; label from the status in PepcDB or PDB records

Sequence	soluble on expression in E. coli
MAHHHHHHMLVKENHSVILYADEENVELVKLTSDGVLTNRKGTFLHKNIIGKKYGSKIYDSACRNYIYVLRRTPEFVAISLKKKTQTLYEHDISFICLLCNALPNKKIIEAGTGTGCLTYALASCVLPKGVIHTFEYNEERYEEVRNEFSNFENVKNNIKFHHKDVISDSFVEFQPGEIDSVFLDMPNPWLCVPHVKKVLKERGVFVIFLPCIEQVYKIIEALEENQFCEIVTYELVNKSWEIIRNGGPAGGCKRARQFSLGGAKETSDPLEGVKETGDPLEGVKETGGPLEGVKETGDPLEGVKETGDPLERAKQSNDPLERAKQSSDPSNEQKNCPTPAQSQNPTYRLRQKENKTHTGYLIFSKKELSDEHEQIEIELKGV	not soluble
MPCVQAQYGSSPQGASPASQSYSYHSSGEYSSDFLTPEFVKFSMDLTNTEITATTSLPSFSTFMDNYSTGYDVKPPCLYQMPLSGQQSSIKVEDIQMHNYQQHSHLPPQSEEMMPHSGSVYYKPSSPPTPTTPGFQVQHSPMWDDPGSLHNFHQNYVATTHMIEQRKTPVSRLSLFSFKQSPPGTPVSSCQMRFDGPLHVPMNPEPAGSHHVVDGQTFAVPNPIRKPASMGFPGLQIGHASQLLDTQVPSPPSRGSPSNEGLCAVCGDNAACQHYGVRTCEGCKGFFKRTVQKNAKYVCLANKNCPVDKRRRNRCQYCRFQKCLAVGMVKEVVRTDSLKGRRGRLPSKPKSPQEPSPPSPPVSLISALVRAHVDSNPAMTSLDYSRFQANPDYQMSGDDTQHIQQFYDLLTGSMEIIRGWAEKIPGFADLPKADQDLLFESAFLELFVLRLAYRSNPVEGKLIFCNGVVLHRLQCVRGFGEWIDSIVEFSSNLQNMNIDISAFSCIAALAMVTERHGLKEPKRVEELQNKIVNCLKDHVTFNNGGLNRPNYLSKLLGKLPELRTLCTQGLQRIFYLKLEDLVPPPAIIDKLFLDTLPF	soluble
MKKPIILRKRYIPDEVIDISGDELVFRSEDLLITKWNPIRKRPDISGGISFTFLKEGYKASKFFGPSGEFKYWYCDIIKVLYDEDEDKYTLVDLLLDVKIMPDGRVEVLDADELAEALKNNIISKEEACMCLSILDKILKMAYSGKFPPEICLKDY	soluble
MGSDKIHHHHHHVPSGNGDNPATGARGGNMEISFLVPNSSNGSRAASAEDSGVYEDGTAEEYKVSNVTLYLFDSSSKNLVTTINVTQSDLGAGTSSGESSKEGQTIVYPCNKEITVKPGNYDILAVANGSQTFEIGQESTLLGQIDASTYGNGMITSVPGSGFIMSNRGSANMNITVESPEESDTKTQVRINLERAVAKLMVRNDSKEIYTLKNPAGVTYATVRLNNYKFINLANKFYTFRHVATLDNAPETPSAPSSYSVEAGNFGNIADNNGYLIDPYFFDKTVAGATTNFTGGSFYTNHLSKQTDSNWSGLADAGKYVSMYCLENCMFRPAQNTVYTTGIMLKGTFTPEASQTIGNNGNPVEDPLVFNTLYYFNYKFYTTLAAVGKYGDANIDGLTEESSDAELAAKQITRFTKNGGNFSTFYNYWIKHLDNNNPTVMGVMEFGIVRNNIYSVNITSIKNLGPGTPDTKPDPDENKAFLDVEFGVYPWIVRDQDADLE	not soluble
MEKFDVIIIGAGPAGLFAAYELVERSNMKVLIIDEGGDVDQRVCPMDQLGYCIGCKPCHIMSGVGGAGGLSDGTVNLRPDIGGDLTELTNDENYSWQLVWEVDQILLKHGAPRNLYKGDPDQIRYWERKAAQAGVKFIPIIQRHIGSDNTPRVIKSIKQYLESKGVKFLLWTKALEFNKGWVKVRRGKDVFTIEGKYIIVAPGRGGAEWFHEIAQKIGLKARHGPIDVGVRVEVPAIIMEPITSINHDPKFHIYTDTYDDFVRTFCTNPYGFVVEERYDGYVGVNGHSMRNKKSNNTNFAFLTRIELTEPVEDTTAYGRSIAQLATTIGGGRPILQRLGDLRRGRRSTWSRIRKSNVEPTLKHVTPGDIAMALPHRVVTNIIEGLEKLDKVIPGVASDHTLLYAPEIKYYAMKVEVNELLETSIENVFAAGDGAGLSRDIVNAAATGIMAARGILVKEGLYNLKDFKKPGNWKEKIESLEPEELEHHHHHH	soluble
MGSDKIHHHHHHMQTFLKGKRVGYWLSEKKIKKLNFQAFAELCRKRGMEVVQLNLSRPIEEQGPLDVIIHKLTDVILEADQNDSQSLELVHRFQEYIDAHPETIVLDPLPAIRTLLDRSKSYELIRKIEAYMEDDRICSPPFMELTSLCGDDTMRLLEKNGLTFPFICKTRVAHGTNSHEMAIVFNQEGLNAIQPPCVVQNFINHNAVLYKVFVVGESYTVVQRPSLKNFSAGTSDRESIFFNSHNVSKPESSSVLTELDKIEGVFERPSDEVIRELSRALRQALGVSLFGIDIIINNQTGQHAVIDINAFPGYEGVSEFFTDLLNHIATVLQGQSTAMAATGDVAL	soluble
MGHHHHHHKVTLPDLKWDFGALEPYISGQINELHYTKHHQTYVNGFNTAVDQFQELSDLLAKEPSPANARKMIAIQQNIKFHGGGFTNHCLFWENLAPESQGGGEPPTGALAKAIDEQFGSLDELIKLTNTKLAGVQGSGWAFIVKNLSNGGKLDVVQTYNQDTVTGPLVPLVAIDAWEHAYYLQYQNKKADYFKAIWNVVNWKEASRRFDAGKI	soluble
MVNKDVKQTTAFGAPVWDDNNVITAGPRGPVLLQSTWFLEKLAAFDRERIPERVVHAKGSGAYGTFTVTKDITKYTKAKIFSKVGKKTECFFRFSTVAGERGSADAVRDPRGFAMKYYTEEGNWDLVGNNTPVFFIRDAIKFPDFIHTQKRDPQTNLPNHDMVWDFWSNVPESLYQVTWVMSDRGIPKSFRHMDGFGSHTFSLINAKGERFWVKFHFHTMQGVKHLTNEEAAEIRKHDPDSNQRDLFDAIARGDYPKWKLSIQVMPEEDAKKYRFHPFDVTKIWYTQDYPLMEVGIVELNKNPENYFAEVEQAAFTPANVVPGIGYSPDRMLQGRLFSYGDTHRYRLGVNYPQIPVNKPRCPFHSSSRDGYMQNGYYGSLQNYTPSSLPGYKEDKSARDPKFNLAHIEKEFEVWNWDYRADDSDYYTQPGDYYRSLPADEKERLHDTIGESLAHVTHKEIVDKQLEHFKKADPKYAEGVKKALEKHQKMMKDMHGKDMHHTKKKK	soluble
MGSDKIHHHHHHMLSVSSLDGEWNITEVDGQKISTERMPFIGFDVAQKRIYGNSGCNRMMGSFEADSLKPGTLKFGQIGSTRMMCPDMKTEQMVLGALDKVTSFQTVSDKPDVITLCNQDGQPLMTLEKKAAPEVSLSDLSGEWVIELVNGKKIVGTAEVTPFIGFNLDESRIYGNVGCNTINGALMQEDGKPNSLRFDNVATTMMMCPDMETETIVLNALNETKSFSMKDDKVYLLGENGNELLVLKKQ	not soluble
MAHHHHHHMKSFSVTPRVWRRISEKNAEEGYGNDLRYLRLMIESGGCHGYAYKFLFEENSELVADEDVVVAESDVVQLPQPKSQELRTVAEGEGEGDVGESKAKGPPPRLVVDKHSVAKLLSAVVDFHSELKGSAFVVIGNELVDKSCACAMSFSMKKQQQKV	not soluble
GPGSMVRRNNKSTESTIVFTRGAGDNSLWDDADLIRLWNAQLEEDQCEKAEDEAPVPSTVSEDGSLITTEDDEVAESEQKSSLRSFQSGQREAGVASAIVTAAPINASVAPVVLHQSMFDRLPADIRQLLVAYFNAGYEAGYFVGKRDGSSKVGGKRARGE	not soluble
MDLASLRAQQIELASSVICEDRLDKDPPDLIAGADVGFEQGGEVTRAAMVLLKYPSLELVEYKVARIATTMPYIPGFLSFREYPALLAAWEMLSQKPDLVFVDGHGISHPRRLGVASHFGLLVDVPTIGVAKKRLCGKFEPLSSKPGALAPLMDKGEQLAWVWRSKARCNPLFIATGHRVSVDSALAWVQRCMKGYRLPEPTRWADAVASERPAFVRYTANQPLEHHHHHH	not soluble
SNSANAADSGTLNYEVYKYNTNDTSIANDYFNKPAKYIKKNGKLYVQITVNHSHWITGMSIEGHKENIISKNTAKDERTSEFEVSKLNGKIDGKIDVYIDEKVNGKPFKYDHHYNITYKFNGPTDVAGANAP	not soluble
KKKKKKDPNEPQKPVSAYALFFRDTQAAIKGQNPNATFGEVSKIVASMWDGLGEEQKQVYKKKTEAAKKEYLKQLAAYRASLVSKSYTD	soluble
MKLSTKLCWCGIKGRLRPQKQQQLHNTNLQMTELKKQKTAEQKTRPQNVGIKGIQIYIPTQCVNQSELEKFDGVSQGKYTIGLGQTNMSFVNDREDIYSMSLTVLSKLIKSYNIDTNKIGRLEVGTETLIDKSKSVKSVLMQLFGENTDVEGIDTLNACYGGTNALFNSLNWIESNAWDGRDAIVVCGDIAIYDKGAARPTGGAGTVAMWIGPDAPIVFDSVRASYMEHAYDFYKPDFTSEYPYVDGHFSLTCYVKALDQVYKSYSKKAISKGLVSDPAGSDALNVLKYFDYNVFHVPTCKLVTKSYGRLLYNDFRANPQLFPEVDAELATRDYDESLTDKNIEKTFVNVAKPFHKERVAQSLIVPTNTGNMYTASVYAAFASLLNYVGSDDLQGKRVGLFSYGSGLAASLYSCKIVGDVQHIIKELDITNKLAKRITETPKDYEAAIELRENAHLKKNFKPQGSIEHLQSGVYYLTNIDDKFRRSYDVKK	soluble
MKRTIILFDINETVLNLSALKPKFKATFGDESVMATWFSMLLHSSTVCIMTSVKTDFATLAGTMLESIAARMSIKLSKAARDDILAGFANLPPHNDIKPALAQLKSAGFRTVAFSNSSLNLISTQITNAGLKEYFDDIISVEETGSFKPDPTVYKFAAKRLNQPLESLRLVATHDWDTHGALSVEMRAAYINRSGAVYHPLYRQPDIYATTMEDIVKLIIEKDD	not soluble
MGSDKIHHHHHHMLHRTCIQFHKFGNPKDVLQVEYKNIEPLKENEVLVRMLVRPINPSDLIPITGAYAHRIPLPNIPGYEGVGIVEDVGAFVSRDLIGKRVLPLRGEGTWQEYVKTSPDFVVPIPDSINDFTAAQMYINPLTAWVTCTETLNLQRNDVLLVNACGSAIGHLFAQLSQILNFRLIAVTRNNKHTEELLRLGAAYVIDTSTAPLYETVMTLTNGIGADAAIDSIGGPDGNELAFSLRPNGHFLTIGLLSGVQVNWAEIVTKAKVHANIFHLRHWNKEASSYKWQETFRHLIRLVENEQLRFMKVHSTYDLADVKAAVDVVQSAEKTKG	not soluble
MTFTGLPPEDVPALMTGAVIPHPSVAGRADAYLPSPCIQNHAANLAFLPDGTLSCVWFGGTMEGMRDISIYMSRLPPGSGRWSEPEKMSDDPEKSEQNPLIFNAPDGKTWLLYTSQTSGNQDGSIVKCRISDDGGKTFGPVQILCDSPGTFVRQQIVVNDRGDWLLPIFRCVGLEGQRWSGDADTAAVLISRDGGASWQMRDIPDSIGAVHMNILPLGGCEMIAFYRNRFAETILSSRSADGGETWSPPEPTELPNNNSSIQATVLDNGGIAMVYNHSNATMSDARRQSLYDEIEGDECGENAAVVADAGRKAVWGVPRAPLSLAISRDGGRTFPHRIDLDTGDGFCLSNNSKDSLNREFSYPSVIEGSDGTLHVAYTYYRRALEHHHHHH	not soluble
GLEIHVQIDTKSKLFCNCSTNYLDAEPNTNVCPVCLGLPGAKPLPPNKKAVEVAIMVAKMLGCKIVVDEDIYFQRKHYDYPDLPSGYQRTSTPIGVDGEFMGIGIHEVHLEEDPGQYNPSFGIVDYNRSGTPLIEIVTKPDIKSPEEAREFLKQLMTLFRYLGCLRGEGTMRADVNISIEYMGVQGNRVEVKNVNSIKGVYKVLKYELIRQKNIIKR	not soluble
